Reference: patent US7511119B2, “PRAME peptide analogues” (MannKind Corporation, priority 2005, dated 2009)
Numbered stars: 1 amine (or outer) side, 2 acyl side, 3 side chain; on linkers, the order of the positions; unused ones are H or OH. Square brackets hold non-standard residues; d marks the D form. Ends that are not written are not given here. Tyr(Me) = O-methyl-Tyr, COc1ccc(C[C@H](N[*:1])C(=O)[*:2])cc1; Phe(4-NO2) = N[C@@H](Cc1ccc([N+](=O)[O-])cc1)C(=O)O; Bta = N[C@@H](Cc1csc2ccccc12)C(=O)O; Phg = N[C@H](C(=O)O)c1ccccc1; Nle = CCCC[C@H](N)C(=O)O; Orn = NCCC[C@H](N)C(=O)O; Nva = CCC[C@H](N)C(=O)O

B1: SSX2 41-49 (K41F, A42V, Y48(Phe-4F)) (peptide)
peptide: FVSEKIFXV
modifications: P8 = Phe(4-F), 4-fluorophenylalanine
notes: also called FVSEKIF(Phe-4F)V
B2: SSX2 41-49 (K41F, A42V, I46Nva) (peptide)
peptide: FVSEK[Nva]FYV
notes: also called FVSEK(Nva)FYV
B3: SSX2 41-49 (K41F, A42V, Y48Phg) (peptide)
peptide: FVSEKIF[Phg]V
notes: also called FVSEKIF(Phg)V
B4: SSX2 41-49 (K41F, A42V, E44Nle) (peptide)
peptide: FVS[Nle]KIFYV
notes: also called FVS(Nle)KIFYV
B5: SSX2 41-49 (K41F, A42V, I46Nle) (peptide)
peptide: FVSEK[Nle]FYV
notes: also called FVSEK(Nle)FYV
B6: SSX2 41-49 (K41F, A42V, E44Nva) (peptide)
peptide: FVS[Nva]KIFYV
notes: also called FVS(Nva)KIFYV
B7: SSX2 41-49 (K41F, A42V, Y48S) (peptide)
peptide: FVSEKIFSV
B8: SSX2 41-49 (K41F, A42V, Y48F) (peptide)
peptide: FVSEKIFFV
B9: SSX2 41-49 (K41F, A42V, I46L, Y48T) (peptide)
peptide: FVSEKLFTV
B10: SSX2 41-49 (K41F, A42V, Y48T) (peptide)
peptide: FVSEKIFTV
B11: SSX2 41-49 (K41(Phg)) (peptide)
peptide: [Phg]ASEKIFYV
B12: SSX2 41-49 (K41F) (peptide)
peptide: FASEKIFYV
B13: SSX2 41-49 (K41Y) (peptide)
peptide: YASEKIFYV
B14: SSX2 41-49 (K41(b-(3-benzothienyl)Ala)) (peptide)
peptide: [Bta]ASEKIFYV
B15: SSX2 41-49 (K41(O-methyl Tyr)) (peptide)
peptide: [Tyr(Me)]ASEKIFYV
B16: SSX2 41-49 (K41(Phe-4NO2)) (peptide)
peptide: [Phe(4-NO2)]ASEKIFYV
notes: also called para-nitrophenylalanine analog
B17: SSX2 41-49 (K41F, A42V) (peptide)
peptide: FVSEKIFYV
B18: SSX2 41-49 (K41W, A42V) (peptide)
peptide: WVSEKIFYV
B19: SSX2 41-49 (K41W, A42L) (peptide)
peptide: WLSEKIFYV
B20: SSX2 41-49 (K41Y, A42M) (peptide)
peptide: YMSEKIFYV
B21: SSX2 41-49 (K41Y, A42L) (peptide)
peptide: YLSEKIFYV
B22: SSX2 41-49 (K41F, A42I) (peptide)
peptide: FISEKIFYV
B23: SSX2 41-49 (K41W, A42M) (peptide)
peptide: WMSEKIFYV
B24: PRAME425-433 analog with Hse at P1 (peptide)
peptide: XLLQHLIGL
modifications: P1 = Hse (homoserine)
B25: PRAME425-433 S425F L433Nle analog (peptide)
peptide: FLLQHLIG[Nle]
notes: the second is probably S425T L433Nle
B26: PRAME425-433 analog with Phe at P1, Met at P2 and Nle at PΩ (peptide)
peptide: FMLQHLIG[Nle]
B27: PRAME425-433 S425T L426M L433Nle analog (peptide)
peptide: TMLQHLIG[Nle]
B28: PRAME425-433 analog with Nva at P2 (peptide)
peptide: S[Nva]LQHLIGL
B29: PRAME425-433 analog with Ile at P2 (peptide)
peptide: SILQHLIGL
B30: PRAME425-433 analog with Phe at P1 (peptide)
peptide: FLLQHLIGL
notes: also called Phe P1 analog; S425F
B31: PRAME425-433 analog with Tyr at P1 (peptide)
peptide: YLLQHLIGL
B32: PRAME425-433 analog with Thr at P1 (peptide)
peptide: TLLQHLIGL
B33: PRAME425-433 analog with Orn at P1 (peptide)
peptide: [Orn]LLQHLIGL

What follows are molecules tested against T1, HLA-A*0201 on T2 cells (human) (assay: T2 cells, wild-type/analog half-maximal binding). Settings: not given.
T1 construct: whole, on cells; Class I MHC on the surface of T2 cells, detected with a fluorescent anti-A2 antibody; beta2-microglobulin is not mentioned for this assay; also called MHC class I (A2 allele)

Molecule	Relative affinity (1/RA)
B1	1.4 1/RA
B2	2.4 1/RA
B3	2.5 1/RA
B4	1.1 1/RA
B5	1.1 1/RA
B6	3.9 1/RA
B7	3.9 1/RA
B8	1.7 1/RA
B9	2.6 1/RA
B10	3.8 1/RA

Each molecule was assayed on target cells coated with wild-type peptide (assay: In vivo cytotoxicity against wild-type NY-ESO-1 peptide-coated target cells). Settings: plasmid entrain, peptide amplify; FIGS. 15-16.
Design: species or system HHD mice
Experimental: These cells were then stained with CFSE^hi and CFSE^med fluorescence (4.0 μM or 1 μM, respectively, for 15 minutes) and intravenously co-injected into immunized mice with an equal number of control splenocytes stained with CFSE^lo fluorescence (0.4 μM). Eighteen hours later the specific elimination of target cells was measured by removing the spleens and PBMC from challenged animals and measuring CFSE fluorescence by flow cytometry. The relative depletion of the populations corresponding to peptide loaded splenocytes was calculated relative to the control (unloaded) population and expressed as % specific lysis.

Molecule	in vivo cytotoxicity (% specific lysis), in words
S157K L158V C165V: NY-ESO-1 157-165 analog with S157K, L158V and C165V substitutions (KVLMWITQV; UniProt P78358 157-165, looked up, variant S157K L158V C165V)	effect in the same range with wild-type peptide
SLLMWITQC [Nyeso-1 157-165, reference compound]	variable cytotoxicity

Biological target: T1, HLA-A*0201 on T2 cells
Assay: T2 cells, wild-type/analog half-maximal binding
Settings: not given
Remark: another data set of the same source

Molecule	Relative affinity (1/RA)
B11	2.5 1/RA
B12	1.5 1/RA
B13	1.7 1/RA
B14	0.6 1/RA
B15	0.8 1/RA
B16	1.1 1/RA

Biological target: T1, HLA-A*0201 on T2 cells
Assay: T2 cells, wild-type/analog half-maximal binding
Settings: not given
Remark: another data set of the same source

Molecule	Relative affinity (1/RA)
B17	3.1 1/RA
B18	3 1/RA
B19	3.3 1/RA
B20	0.6 1/RA
B21	1.2 1/RA
B22	2.7 1/RA
B23	2.9 1/RA

The molecules below were run on T cells specific for the wild-type NY-ESO-1157-165 epitope (assay: Cross-reactivity and functional avidity of NY-ESO-1 157-165 analogs (IFN-gamma production ex vivo)). Settings: relative to wild-type peptide; FIG. 13.
Assay type: cell-based, HHD transgenic mice

Molecule	activity in cross-reactivity assay (NY-ESO-1 157-165 specific T cells), in words
NY-ESO-1157-166: 10-mer of the wild-type sequence NY-ESO-1 157-166 (SLLMWITQCF; UniProt P78358 157-166, looked up, fragment) [reference compound]	no immunological activity
S157Y L158I C165V: NY-ESO-1 157-165 analog with S157Y, L158I and C165V substitutions (YILMWITQV; UniProt P78358 157-165, looked up, variant S157Y L158I C165V)	increased activity relative to the wild-type peptide
L158V: NY-ESO-1 157-165 analog with L158V substitution (SVLMWITQC; UniProt P78358 157-165, looked up, variant L158V) [Peptide L158V]	partial retention of activity

These molecules were tested against T2, HLA-A*0201 class I monomer of the iTopia Epitope Discovery System (assay: iTopia affinity assay). Settings: not given.
T2 construct: also called A0201 restricted MHC Class 1 molecules; MHC monomer

Molecule	fold difference of affinity (ED50) against the native peptide [fold]	fold reduction of ED50 against the native peptide [fold]	binding result	fold reduction of affinity (ED50) against the native peptide [fold]
B24	≤ 3			
B25		> 4		
B26			binds	
B27			binds	
B28				≤ 3
B29				≤ 3
B30	≤ 3			
B31	≤ 3			
B32	≤ 3			
B33	≤ 3			

These molecules were tested on native PSMA288-297 peptide (assay: Cross-reactive immunogenicity of PSMA analogs, IFN-gamma ELISPOT). Settings: peptide plus pI:C intranodal; FIG. 22.
Assay type: in vivo, HHD transgenic mice
Experimental: Groups of HHD transgenic mice (n=8) were immunized with peptide (natural epitope PSMA288-297, or analogs bearing substitutions at primary or secondary anchor residues) by direct inoculation into the inguinal lymph nodes, with 25 μg in 25 μl of PBS+12.5 μg of pI:C to each lymph node at day 0, 3, 14 and 17.
Mice were sacrificed at 10 days after the last boost, and splenocytes prepared and assessed for IFN-γ production by ELISPOT analysis. […] At 48 hours after incubation, the assay was developed and the frequency of cytokine-producing T cells that recognized native PSMA288-297 peptide was automatically counted. The data is represented in FIG. 22 as the number of spot forming colonies/well (mean of triplicates±SD). […] To the extent that the poor immunogenicity of the native epitope reflects tolerance, the improved activity of these analogs represents tolerance breaking.

Molecule	priming of immune response against native PSMA288-297 (IFN-γ ELISPOT), in words
{Abu}LPSIPVHPI (XLPSIPVHPI; Abu at position 288; T cell peptide epitope analog) [Peptide G288Abu, PSMA288-297 analog with G288Abu substitution]	slightly higher (but significant) activity
GLWSIPVHPI [Peptide P290W]	increased priming
